The record followed here is a protein production outcome set (Wang et al. 2014).
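Further: failed if final PepcDB status was selected cloned or expressed and not failed if soluble or beyond.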

The data set is described as follows: label from the status in PepcDB records.
For the sequence “MFNRRIALICLIVATLSACGGKTKEELYAEAVKELDKGNANGAIVLLKNAVEKDQNYFDARYKLAKAYMTVGKFEQAEKEFQKALRQNPSNPEIRLDLAKLYNSINKPDESIAEAKAYLSARAGSADALEVIGTSYGQKKMFDEAEKYLKESLQAEPARASAMLQLAKVYLATKREQEGMGLLNEIVRKDPKNTKAYYLAAFYEGYRGNSEKALEYYQKIMQADPDDANAAFRIGMMHISKGEVDKAERLADDLIRKASKRPEGHQLKGIALYTRKNYDQAITELQGVVKNYQNPGAYYYLGLSYYQRNDLESALSQFRKVIDLNPKHLQARLMSATVLLQQKRTDDAITEAKRVIELDDKNAFAHNVLGSAYIAKGMTDEAVRELNRAIELEPKLVGAHMKKGIVNLARGKRAEGEEELETAVKVAPDVLNSRYLLASYYMRLNKQARAIEVLRAGLRGGKQDAPLYNTMAAAAFADKREKDGILYLQKAREVDQAYLPASFNLASYYISKKDNGRAAGLFNEILKRDPANLKALIGLGAISESEGKAQEAVAYYTKAKATKDPVGYLSLASYYIRKKEAPKALALANEGLKGAPNNAALLELKGGLLAADKKYAEALKVYDELEKVAPTRAIPLKIGALVVTKNIPKAVEQAQKVVAANPKSAAGHLVIASIYESQKDYDRAISAVRSGIAVEPGNLRASMALGGIYEKKRDFARAIAAYDDILRKNPKNIPALFAKGAAFDQSGKKKEAAGIYRAVLKIAPDFVPALNNLAYLAAEGYGNKSEALSLASRANKLQPNNAGVMDTYGYALLINGKRTASVRVLEKAVSLLPNNPAVHYHLAMAYRDMGDRAKASVSVQKSLQYGEFPESAAARKLLAELKR”, the protein production entry is on record as “failed”.
In the case of “MFPYKIVDDVVILMPNKELNIENAHLFKKWVFDEFLNKGYNKIFLVLSDVESIDSFSLGVIVNILKSISSSGGFFALVSPNEKVERVLSLTNLDRIVKIYDTISEAMEEVRRK” it was “not failed”.
For “MFQIGEHNMILIYKLTLTKLTEDELKKDFATIPSWATHLDLSNNRLGETSNEELIRVFAKIPGWISHIKLRFNNLGQKNGKDLAKAFAKIPISVTTLDLGSNQLGKKSGEELANAFAGIPTSVTRLILSQNELYKRTGGELATAFAKIPSSVTHLVLVNNGLGEKNGKELATAFANIPSSVTTLDLALNDLSKIKSTELAVIFTKIPTSVTQLDLSHNNLNKKSGKNLAKIFANIPTSVTNLNLSCNELGKKSGKGLAAAFAKIPTSVTDLNIEDNDLDNRTGKELAMAFAHIPAFVNTLRLGDNNLGNKSGEELAEIFAKIPLSVTSLDLRYNELGKRNGKELAIAFAKIPSSVTNLNLKFNHLGKITGEELAMAFANIPTNVDSLVLANNELGAKSGEELAKIFSKIPASITSLNMGNDWFAVIEKLSQQKMVLSTITHVVIDYSSAQEHSAKLKLLATVFPNLNKVTFMDIHGNNALAGQNPIEEAKWLKLCGIKNSVPSLLSQALFFVAKNKEHRSIQDYPSLLPKELTDSISSLLKC” the value was “failed”.
For “MFQLRKKMTRKQLALLSAGVLTCVVGGSYLIMNHQQQEIVSSVNKVKALTIKEAMEQGKDISLTLAGEVTANNSSKVKIDSSKGEVKEVFVKKGDVVKVGQPLFSYETSQRLTAQSSEFDVQTKANQLQVAKTNAALKWETYNRKVNEINTLKSRYNTAPDESLLEQIRSAEDSVSQALSDAKTADSDVKTAQIELDKANATATTEKGKLEYDTVKSDTAGTIVSLNTDLPNQSKSKKENETFMEIIDKSKMLVKGNISEFDRDKLKIGQKVEVIDRKDNSKKWTGKVTQVGNLKAEEKGQGQGQGGNDQQDNPNQAKFPYVIELDQSDKQPLIGSHTYVNVLNNVPEAGKIVLKETFTMAENGKTYVWKVDKNKVKKQEIKTKPFSKGYVEVTSGLTMQDKIAQPLPGMKDGMEVGSIVKP” the value was “failed”; for “MFRDEDETTPPRAREVERLKKRLYRLKYLAHKYKRAEVVQNALLELSHIATQVSSLEEFYLGVHHHLKQLISADNFFIATLDVNSGAISVPFFADEKDAHPSQLYPEQSLSTLLQQGLTGYVFRTGQTLLCDESKVDELVNAEEIVNLGSPCHLWLGVPIKHEDIVTAVLVVQTYDTNVSYGDIEVELMTFICHHITGVMERLKHQEQLEQAIQQ”, “failed”.
